The target of assay [1] is recombinant human CR3 I-domain (I-domain of CD11b) (human). Nature of the assay: SPR.
For assay [2], the target named is recombinant human complement receptor 3 (integrin αMβ2) (human) (UniProt P11215). Nature of the assay: SPR.

Chain of N. gonorrhoeae MS11 wild-type pilin (PilE) modified with the Gal(α1-3)diNAcBac disaccharide (P02974 8-165 limits assumed): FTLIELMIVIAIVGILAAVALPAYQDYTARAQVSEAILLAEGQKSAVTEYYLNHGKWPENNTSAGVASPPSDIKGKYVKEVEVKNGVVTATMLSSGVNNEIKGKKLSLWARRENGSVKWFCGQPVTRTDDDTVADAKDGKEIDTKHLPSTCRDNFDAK

Take “N. gonorrhoeae MS11 wild-type pilin (PilE) modified with the Gal(α1-3)diNAcBac disaccharide (from UniProt P02974 8-165) (natural protein)”: the values for the Kd in assay [1] and in assay [2] were 0.349 µM and 0.907 µM, respectively.

Values taken from PMC7064771, “Repurposed Drugs That Block the Gonococcus-Complement Receptor 3 Interaction Can Prevent and Cure Gonococcal Infection of Primary Human Cervical Epithelial Cells” (mBio, 2020).
